According to ChEMBL document CHEMBL1134058, “Phospho-Azatyrosine, a less effective protein-tyrosine phosphatase substrate than phosphotyrosine” (Bioorg Med Chem Lett, 2001):

Key:
[1] = substrate: CC(=O)N[C@@H](CC(=O)O)C(=O)N[C@@H](C)C(=O)N[C@@H](CC(=O)O)C(=O)N[C@@H](CCC(=O)O)C(=O)N[C@@H](Cc1ccc(OP(=O)(O)O)cc1)C(=O)N[C@@H](CC(C)C)C(N)=O; test: (§1) Binding affinity constant against mammalian protein-tyrosine phosphatase 1 (PTP1)
[2] = substrate: CC(=O)N[C@@H](CC(=O)O)C(=O)N[C@@H](C)C(=O)N[C@@H](CC(=O)O)C(=O)N[C@@H](CCC(=O)O)C(=O)N[C@@H](Cc1ccc(OP(=O)(O)O)cn1)C(=O)N[C@@H](CC(C)C)C(N)=O; test: as §1

B1: Tyrosine-protein phosphatase non-receptor type 1 (Homo sapiens), P18031 (protein)
chain: MEMEKEFEQIDKSGSWAAIYQDIRHEASDFPCRVAKLPKNKNRNRYRDVSPFDHSRIKLHQEDNDYINASLIKMEEAQRSYILTQGPLPNTCGHFWEMVWEQKSRGVVMLNRVMEKGSLKCAQYWPQKEEKEMIFEDTNLKLTLISEDIKSYYTVRQLELENLTTQETREILHFHYTTWPDFGVPESPASFLNFLFKVRESGSLSPEHGPVVVHCSAGIGRSGTFCLADTCLLLMDKRKDPSSVDIKKVLLEMRKFRMGLIQTADQLRFSYLAVIEGAKFIMGDSSVQDQWKELSHEDLEPPPEHIPPPPRPPKRILEPHNGKCREFFPNHQWVKEETQEDKDCPIKEEKGSPLNAAPYGIESMSQDTEVRSRVVGGSLRGAQAASPAKGEPSLPEKDEDHALSYWKPFLVNMCVATVLTAGAYLCYRFLFNSNT
[1]
  Km: 3.6 µM
[2]
  Km: 210 µM
